The record followed here is publication PMC8607333, “Real-time kinetic studies of Mycobacterium tuberculosis LexA–DNA interaction” (Bioscience Reports, 2021).

One may read the Kd as the concentration at which binding is half-saturated.

T1: LexA WT (Mycobacterium tuberculosis, UniProt P9WHR7 1-236)
T1 sequence: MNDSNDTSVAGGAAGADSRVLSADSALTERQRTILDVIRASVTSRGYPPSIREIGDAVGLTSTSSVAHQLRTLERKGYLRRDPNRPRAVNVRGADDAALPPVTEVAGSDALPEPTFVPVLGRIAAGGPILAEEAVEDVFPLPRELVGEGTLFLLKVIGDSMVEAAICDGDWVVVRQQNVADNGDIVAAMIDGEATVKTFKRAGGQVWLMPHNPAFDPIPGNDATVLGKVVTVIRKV

T2: LexAΔ18aa (Mycobacterium tuberculosis, UniProt P9WHR7 1-236, del94-111)
T2 sequence: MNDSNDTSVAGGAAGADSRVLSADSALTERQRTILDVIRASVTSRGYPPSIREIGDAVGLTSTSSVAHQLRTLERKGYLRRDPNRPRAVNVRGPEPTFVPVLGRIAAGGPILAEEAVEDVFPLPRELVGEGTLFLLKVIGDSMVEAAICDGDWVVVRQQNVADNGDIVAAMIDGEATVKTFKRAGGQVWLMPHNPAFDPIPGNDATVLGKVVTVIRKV

T3: LexAΔ24aa (Mycobacterium tuberculosis, UniProt P9WHR7 25-236, del1-24)
T3 sequence: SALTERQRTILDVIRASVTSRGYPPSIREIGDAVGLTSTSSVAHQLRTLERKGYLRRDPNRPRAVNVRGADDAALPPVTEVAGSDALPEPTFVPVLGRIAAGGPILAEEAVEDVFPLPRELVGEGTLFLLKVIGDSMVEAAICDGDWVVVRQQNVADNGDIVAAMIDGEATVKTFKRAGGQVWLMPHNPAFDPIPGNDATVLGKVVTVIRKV

B1: rv3074_44mer SOS box, biotinylated (dsDNA)
DNA 1: GCAGGCTGCTATTCTCGAACACATGTTCGAGACATTGACCGCGA
DNA 2: TCGCGGTCAATGTCTCGAACATGTGTTCGAGAATAGCAGCCTGC
B2: dnaE2_44mer SOS box, biotinylated (dsDNA)
DNA 1: ACAACTGCGCTGTATCGAACAATTGTTCGATATACTGTGGAATG
DNA 2: CATTCCACAGTATATCGAACAATTGTTCGATACAGCGCAGTTGT
B3: recA_44mer SOS box, biotinylated (dsDNA)
DNA 1: GTGTCACACTTGAATCGAACAGGTGTTCGGCTACTGTGGTGATC
DNA 2: GATCACCACAGTAGCCGAACACCTGTTCGATTCAAGTGTGACAC
B4: lexA_44mer SOS box, biotinylated (dsDNA)
DNA 1: CCGGAACACGCCTGTCGAACACATGTTTGATTCTTGGTGCGAAT
DNA 2: ATTCGCACCAAGAATCAAACATGTGTTCGACAGGCGTGTTCCGG
B5: dnaE2 44mer SOS box, 32P end-labeled (dsDNA)
DNA 1: B2 DNA 1
DNA 2: B2 DNA 2

The first data set has as its target T1, LexA WT. In words: BLI; pH 7.5; BLI: 10 mM HEPES pH 7.5, 50 mM NaCl, 25 C (pH 4 buffer not stated), 1:1 global fit; […]. As to conditions: protein: recombinant; tags: N-term 6xHis (pET28a); chain copies: 2; label: 5' biotin on strand 1; blunt. On the technique in general: Biolayer interferometry detects binding as a change in optical thickness at a sensor tip.
As for B1, the Kd stood at 3.86 ± 0.03 nM.
B2: the dissociation constant (Kd) was 2.16 ± 0.01 nM.
As to B3, the Kd came to 3.63 ± 0.02 nM.
For B4, the Kd worked out at 0.98 ± 0.01 nM.

In the next data set the target is T2, LexAΔ18aa. Description: EMSA; 128 nM protein; BLI: 10 mM HEPES pH 7.5, 50 mM NaCl, 25 C (pH 4 buffer not stated), 1:1 global fit; EMSA: 10 mM HEPES pH 7.5, 50 mM NaCl, 30 min on ice, 3.5 nM DNA. As to conditions: protein: recombinant; tags: 6xHis; chain copies: 2; label: 32P end label, no biotin; blunt. Background: Mobility shift assays separate free from complexed probe on a gel.
For the molecule B5, the binding result is “binds”.

A further data set has as its target T3, LexAΔ24aa. In words: BLI; pH 7.5; BLI: 10 mM HEPES pH 7.5, 50 mM NaCl, 25 C (pH 4 buffer not stated), 1:1 global fit; EMSA: 10 mM HEPES pH 7.5, 50 mM NaCl, 30 min on ice, 3.5 nM DNA. Conditions: protein: recombinant; tags: N-term 6xHis (pET28a); chain copies: 2; label: 5' biotin on strand 1; blunt.
In the case of B1, the Kd amounted to 2.75 ± 0.04 nM.
As to B2, the Kd came to 4.94 ± 0.03 nM.
Regarding B3, the dissociation constant (Kd) was 1.67 ± 0.02 nM.
Regarding B4, the Kd was 2.36 ± 0.02 nM.

Another data set addresses T2, LexAΔ18aa. The description is as above. As to conditions: protein: recombinant; tags: 6xHis; chain copies: 2; label: 5' biotin on strand 1; blunt.
B1: the Kd worked out at 43.5 ± 0.24 nM.
In the case of B3, the dissociation constant (Kd) was 32.55 ± 0.22 nM.
On the same count and under the same terms, the value for B4 was 34.53 ± 0.25 nM.
